Drawing on paper PMC5378873 (Oncogene, 2016), this text covers Kd for 1 molecule.

As usually defined, the Kd is the concentration at which binding is half-saturated. High values mean lower affinity, low ones higher affinity.

The target in this experiment is FKBP12 (protein used for ITC) (human, UniProt P62942 1-108). Description: ITC.
Chain of FKBP12 (protein used for ITC) (P62942 whole entry): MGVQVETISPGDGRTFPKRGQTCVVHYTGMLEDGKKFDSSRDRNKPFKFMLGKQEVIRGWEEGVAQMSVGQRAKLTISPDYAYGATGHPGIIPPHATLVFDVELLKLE

B1: MDM2 (425-491) RING domain (protein used for ITC) (domain or fragment, human, UniProt Q00987 425-491, looked up)
chain: SVESSLPLNAIEPCVICQGRPKNGCIVHGKTGHLMACFTCAKKLKKRNKPCPVCRQPIQMIVLTYFP
In turn, B1 had a dissociation constant (Kd) of 1940 nM.
